In article PMC6138665, “HUWE1 E3 ligase promotes PINK1/PARKIN-independent mitophagy by regulating AMBRA1 activation via IKKα” (Nature Communications, 2018):
Non-standard residues stand in square brackets, D forms with d. No end group written: not given here. pS = N[C@@H](COP(=O)(O)O)C(=O)O

B1: AMBRA1-LIR peptide, S1014 phosphorylated (P1) (peptide)
peptide: EALN[pS]GVEYYWDQLNET
notes: limits counted from S1014 as the fifth letter; also called S1014-phosphorylated AMBRA1-LIR peptide; source: synthetic peptide, bought: GenScript
B2: AMBRA1-LIR peptide, unphosphorylated (P0) (peptide)
peptide: EALNSGVEYYWDQLNET
notes: limits counted from S1014 as the fifth letter; also called unmodified AMBRA1-LIR; source: synthetic peptide, bought: GenScript

Assays:
[1] = target: T1, GABARAP protein (recombinant) (UniProt O95166 1-117); assay: ITC; peptides at 0.35 mM titrated into 0.015 mM LC3 and GABARAP proteins in 21 steps; MicroCal VP-ITC; 25 °C and 35 °C (the LC3B titrations of Fig. 4a at 35 °C); 50 mM Na2HPO4, 100 mM NaCl, pH 7.0; one-site binding model; settings: both partners purified
T1 construct: GABARAP, one of the six mATG8 proteins; CSPs were mapped on PDB 1GNU; source: unlabelled or 15N-labelled

[2] = target: LC3B protein (recombinant) (UniProt Q9GZQ8 1-120); assay: as above; settings: both partners purified

T1 sequence (O95166 whole entry): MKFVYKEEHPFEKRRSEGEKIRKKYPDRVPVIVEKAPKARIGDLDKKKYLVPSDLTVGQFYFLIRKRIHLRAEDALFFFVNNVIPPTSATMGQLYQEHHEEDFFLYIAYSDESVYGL

Binder | Kd [1] [µM] | Kd [2] [µM]
B1 | 21 | 53
B2 | ~40 | > 100
